Data taken from the supplement of paper PMC12042874.
± gives the uncertainty stated by the source.

Assay: amyloid nucleation score (Sup35N fusion, yeast selection) (log enrichment); library NNK3; higher = more nucleation; inactive = no reads after selection
Method in brief: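 Random libraries were run with three technical output replicates. In each, psi-negative yeast expressing Sup35N fused to peptides of 20 random codons were induced 24 hours with 100 μM copper sulfate and grown 7 days at 30°C on medium lacking adenine and uracil, and input and output plasmid inserts were Illumina-sequenced. The nucleation score is the DiMSum log enrichment of output over input reads, centred on the mode score of non-aggregating sequences, and sequences under 100 input reads were excluded.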

Substance | amyloid nucleation score
YMFRFGSTDCEAYV | inactive
YKIMTLYTSCKRFEVHRGCT | inactive
RKLCINGCVFTAMREFC | inactive
SRSFKRNLVSMVNLGVRDEM | inactive
GGVHDSLNIYGFRYGLRKGV | inactive
VCMLVMYESRLNVEKAVLLG | -0.083 ± 0.64
EWVANPSFGYAEWLLV | inactive
SCGLFRLNMDIRVSNKNFWG | 0.991 ± 0.12
YDKCLQCARRHNSSILSPTG | inactive
IVSKW | inactive
MSNLCDLHKN | inactive
GYMWGLEDNFALWTGRNNYV | inactive
SNSFLFYFEYSGVKLRRLGL | inactive
ELAHKIMAM | inactive
RMRLRVSVILGA | 0.997 ± 0.11
AGHYLLSPGYQMMLERSNRS | inactive
YNVIT | inactive
VHFLSTVGMKLTALYKGVVM | inactive
NMQLVYDRMDE | inactive
RIFSFT | inactive
TDYMLVWSQYRLIHFCNLVV | inactive
RYCNVFVKIVALCGYKGSWS | 2.64 ± 0.06

Substance | amyloid nucleation score
PVFLCSLLLVPKANSIPGK | inactive
IRSYAF | inactive
KCLLGLSLVRAKRSKLWMW | inactive
IVADAAWNAIGVSGMDSTGT | inactive
VKYDDSWYDDWHIYNVYRCK | inactive
IVQLHDIVDS | -0.168 ± 0.9
CFYVSLCGV | 0.259 ± 0.49
YGWIDRS | inactive
APNFCWSLFYVDSNVEFERL | inactive
EAKMMRDLSVLVGMPYIMTN | inactive
YRIVVVMMAIISTNDNIP | 0.371 ± 0.26
YISLT | inactive
IGAIYACRLFVRGLASFLTL | inactive
GCVAAMS | inactive
KLTGQDLVVGNAFATVVYVE | inactive
FKRGTCISSSNYNIYCYWKC | inactive
CAFVDSISCLPLFR | inactive
LYDISGPM | inactive
FLRKFRLTLIYVTRASWLGG | inactive
VEWLTSLVVIFWNFGKNKFL | inactive
RMCLITTYTRVFLWLHT | inactive
LACSSSCILSPVVGIGFSWN | 1.89 ± 0.055

Substance | amyloid nucleation score
LKTNCTPNMLFGFLSEMMRC | inactive
LKLFWSLET | inactive
RTDLWRIGDVANWIYALP | inactive
TDETSGRSLGVVWEHHAMNH | inactive
VVTEVSSLSSTGGSFVWLCR | inactive
ISVIYLS | inactive
TLFSSCGLVHLLNCMRWPPG | inactive
TVPIILVSTVRANMFFETRN | 1.54 ± 0.093
DCDRILLV | inactive
LYGLRHYILSEHFGGFVLVG | inactive
SNSFSSSLLCLDARD | inactive
FCLPICFD | inactive
CDIRAAGSKLTDYPLSTRAS | inactive
LFALSWTS | 0.182 ± 0.35
WCQFSDLSVAFK | inactive
LYREFVWMEVCVCRWG | inactive
CVVGDPSGVK | 0.62 ± 0.13
NWEFDSNAILDSMLVMNRLT | inactive
EIVTRERIPEWYSLLLMGLP | inactive
LAITNIEWSLFIQWTLI | inactive
DNSCVMMKTGGRYFELFRVV | inactive
FFSAFID | inactive
